Values of other authors in publication PMC8542695.

What was measured:
p53 (Homo sapiens) = p53 (Homo sapiens) (UniProt P04637)
[1] = target: annexin A2 (ANXA2) (Homo sapiens) (UniProt P07355)
[2] = target: non-muscle myosin 2A (NM2A) (Homo sapiens) (UniProt P35579)
Chain of non-muscle myosin 2A (NM2A) (Homo sapiens) (P35579 2-1960): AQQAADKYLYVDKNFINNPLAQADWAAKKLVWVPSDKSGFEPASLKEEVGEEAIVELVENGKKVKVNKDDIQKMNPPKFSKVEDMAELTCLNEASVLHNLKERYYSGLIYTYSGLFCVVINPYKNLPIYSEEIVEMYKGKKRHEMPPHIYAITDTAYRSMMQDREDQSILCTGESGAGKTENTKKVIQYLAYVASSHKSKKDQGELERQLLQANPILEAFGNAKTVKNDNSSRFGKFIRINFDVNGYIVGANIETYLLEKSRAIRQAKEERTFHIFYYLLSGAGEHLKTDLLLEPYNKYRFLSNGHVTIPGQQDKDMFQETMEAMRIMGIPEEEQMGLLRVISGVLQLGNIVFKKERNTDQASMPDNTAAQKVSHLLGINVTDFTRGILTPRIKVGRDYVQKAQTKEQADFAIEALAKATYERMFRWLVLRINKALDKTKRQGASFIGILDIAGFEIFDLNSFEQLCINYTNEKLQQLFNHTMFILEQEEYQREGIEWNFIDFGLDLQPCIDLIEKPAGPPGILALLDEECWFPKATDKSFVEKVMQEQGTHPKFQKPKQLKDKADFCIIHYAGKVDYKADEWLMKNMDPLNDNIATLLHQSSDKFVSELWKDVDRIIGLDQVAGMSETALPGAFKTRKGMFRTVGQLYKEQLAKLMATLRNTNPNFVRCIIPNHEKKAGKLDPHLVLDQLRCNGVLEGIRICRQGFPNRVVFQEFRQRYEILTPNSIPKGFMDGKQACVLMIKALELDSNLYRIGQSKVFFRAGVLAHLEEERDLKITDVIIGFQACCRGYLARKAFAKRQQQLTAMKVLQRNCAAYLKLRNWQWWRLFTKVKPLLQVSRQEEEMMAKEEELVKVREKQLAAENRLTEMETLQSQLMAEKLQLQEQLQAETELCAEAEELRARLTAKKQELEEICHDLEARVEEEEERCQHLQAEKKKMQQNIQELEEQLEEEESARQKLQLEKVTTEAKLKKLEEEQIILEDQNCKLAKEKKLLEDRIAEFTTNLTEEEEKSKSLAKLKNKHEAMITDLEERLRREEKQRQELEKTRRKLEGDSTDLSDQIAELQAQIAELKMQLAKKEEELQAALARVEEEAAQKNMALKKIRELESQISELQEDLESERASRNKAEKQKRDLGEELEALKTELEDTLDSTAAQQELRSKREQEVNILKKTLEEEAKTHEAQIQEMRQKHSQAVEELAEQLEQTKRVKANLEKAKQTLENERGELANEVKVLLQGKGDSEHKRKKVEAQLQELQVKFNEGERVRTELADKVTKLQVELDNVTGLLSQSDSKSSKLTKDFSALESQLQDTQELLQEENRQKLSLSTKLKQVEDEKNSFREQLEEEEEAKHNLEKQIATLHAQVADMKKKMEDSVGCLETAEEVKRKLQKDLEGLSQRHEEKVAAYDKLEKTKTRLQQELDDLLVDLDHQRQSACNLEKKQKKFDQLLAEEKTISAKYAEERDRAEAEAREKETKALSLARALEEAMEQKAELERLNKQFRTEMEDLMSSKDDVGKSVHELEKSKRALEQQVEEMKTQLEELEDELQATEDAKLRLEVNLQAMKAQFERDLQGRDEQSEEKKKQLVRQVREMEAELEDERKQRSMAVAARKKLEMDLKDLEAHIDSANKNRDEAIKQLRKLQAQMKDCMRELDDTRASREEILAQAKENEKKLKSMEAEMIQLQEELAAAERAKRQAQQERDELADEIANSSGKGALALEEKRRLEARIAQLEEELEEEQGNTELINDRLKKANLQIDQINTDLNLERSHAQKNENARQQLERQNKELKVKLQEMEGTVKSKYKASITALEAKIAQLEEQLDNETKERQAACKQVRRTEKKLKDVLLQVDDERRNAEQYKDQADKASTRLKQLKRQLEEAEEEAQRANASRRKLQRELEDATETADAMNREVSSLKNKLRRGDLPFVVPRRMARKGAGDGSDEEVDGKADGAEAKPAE

Chain of S100A4 (P26447 2-101): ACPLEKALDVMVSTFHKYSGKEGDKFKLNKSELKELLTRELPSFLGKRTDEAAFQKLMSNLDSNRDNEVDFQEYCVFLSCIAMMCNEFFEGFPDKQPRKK
Chain of annexin A2 (ANXA2) (Homo sapiens) (P07355 2-339): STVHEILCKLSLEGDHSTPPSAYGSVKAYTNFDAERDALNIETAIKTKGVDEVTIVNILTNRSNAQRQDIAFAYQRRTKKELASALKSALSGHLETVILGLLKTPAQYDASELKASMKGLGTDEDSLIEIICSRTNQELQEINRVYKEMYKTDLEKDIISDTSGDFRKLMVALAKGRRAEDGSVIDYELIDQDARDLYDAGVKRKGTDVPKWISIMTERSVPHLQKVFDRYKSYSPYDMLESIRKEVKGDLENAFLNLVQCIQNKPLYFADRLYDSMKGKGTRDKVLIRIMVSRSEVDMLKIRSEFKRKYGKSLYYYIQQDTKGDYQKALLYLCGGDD
Chain of p53 (Homo sapiens) (P04637 whole entry): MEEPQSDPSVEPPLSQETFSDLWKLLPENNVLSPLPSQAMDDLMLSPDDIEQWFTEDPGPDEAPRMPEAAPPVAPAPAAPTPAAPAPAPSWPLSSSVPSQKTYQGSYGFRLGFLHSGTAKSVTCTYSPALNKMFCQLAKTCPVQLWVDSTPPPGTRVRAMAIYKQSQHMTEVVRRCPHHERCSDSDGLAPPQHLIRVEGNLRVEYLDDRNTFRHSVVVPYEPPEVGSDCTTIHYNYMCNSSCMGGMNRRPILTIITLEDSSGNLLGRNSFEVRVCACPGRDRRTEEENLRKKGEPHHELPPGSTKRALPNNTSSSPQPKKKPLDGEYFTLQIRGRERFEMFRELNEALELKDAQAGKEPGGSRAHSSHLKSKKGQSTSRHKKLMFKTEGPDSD

Substance: S100A4 (from UniProt P26447)
- Kd (p53 (Homo sapiens)): 2000 nM
- Kd [1]: 2000 nM
- Kd [2]: < 1 nM
